{"source": "patent US12091454B2", "about": "“Humanized anti-human neurotensin receptor 1 antibodies and their uses” (DEVELOPMENT CENTER FOR BIOTECHNOLOGY, priority 2022, dated 2024)", "molecules": {"B1": {"name": "αNTSR1 (AKT2 Hu/Hd) 4seco-DUBA: antibody-drug conjugate of humanized antibody AKT2 HuHd with seco-DUBA payload (conjugate)", "heavy chain": "QVQLVQSGAEVKKPGASVKVSCKASGYAFTSSWIHWVRQAPGQGLEWMGQIRPNSGNTYYNEKFKVRVTMTRDTSTSTVYMELSSLRSEDTAVYYCARYHYGFDYWGQGTLVTVSS", "light chain": "DIQMTQSPSSLSASVGDRVTITCRSSQSIVHSNGNTYLEWYQQKPGKAPKLLIYKVSNRFSGVPSRFSGSGSGTDFTLTISSLQPEDFATYYCFQGAHLPWTFGQGTKVEIK"}}, "key": {"[1]": {"system": "FaDu human head and neck cancer xenograft", "test": "Xenograft model of anti-NTSR1 ADCs (head and neck cancer)", "format": "in vivo, male NOD SCID mice", "protocol": "The aim of this study was to evaluate the in vivo anti-tumor efficacy of αNTSR1 (AKT2) 4seco-DUBA, αNTSR1 (AKT2 Hu/Hu) 4seco-DUBA, and αNTSR1 (AKT2 Hu/Hd) 4seco-DUBA in FaDu human head and neck cancer xenograft model in male NOD SCID mice.\nFormulations respectively comprising test article αNTSR1 (AKT2) 4seco-DUBA, test article αNTSR1 (AKT2 Hu/Hu) 4seco-DUBA, test article αNTSR1 (AKT2 Hu/Hd) 4seco-DUBA, and Hu IgG were formulated by diluting the stock with a 25 mM sodium citrate buffer (pH 6.5). […]\nThe FaDu cells were maintained in vitro as a monolayer culture in RPMI-1640 medium supplemented with 10% fetal bovine serum at 37° C. in an atmosphere of 5% CO2 in air. The tumor cells were routinely sub-cultured twice weekly by trypsin-EDTA treatment. The cells growing in an exponential growth phase were harvested and counted for tumor inoculation.\nMale NOD SCID mice at age of 6-7 weeks were quarantined for one week. Five mice were housed in each cage. All animals were hosted in the animal facility with a 12-h light/12-h dark cycle at 19-25° C. Animals had free access to rodent pellet foods and water ad libitum.\nFaDu cells were subcutaneously (SC) implanted (4×10^6 cells in 1:1 PBS/matrigel mixture at 0.1 mL per mouse) into the right flank of male NOD SCID mice. When the average tumor volume had reached about 200 mm^3, the mice were randomly divided into 7 groups (N=6 per group). Each of Hu IgG, αNTSR1 (AKT2) 4seco-DUBA (5 mg/kg), αNTSR1 (AKT2 Hu/Hu) 4seco-DUBA (5 mg/kg), and αNTSR1 (AKT2 Hu/Hd) 4seco-DUBA (5 mg/kg) was intravenously administered twice weekly for 3 weeks.\nThe tumor volumes, body weights, mortality, and signs of overt toxicity were monitored and recorded three times weekly for 28 days. Tumor volumes (mm^3) were measured three times per week using calipers and calculated according to the formula: Tumor Volume=(w^2×l)/2, where w=width and l=length in diameter (mm) of the tumor. The percentages of tumor growth inhibition (TGI) were calculated using the following formula: % TGI=[1−(T/C)]×100%, where T and C represent the mean tumor volumes of the treatment group and the control group, respectively. A TGI (%) value≥58% was considered as indicating significant anti-tumor activity. Animals were weighed three times weekly until the completion of the study."}, "FaDu cells": {"system": "FaDu cells", "test": "In vitro cytotoxicity study (CELLTITER-GLO)", "format": "cell-based, human", "settings": "72 hours treatment, cell viability, read-out: Relative IC50", "protocol": "Human head and neck cancer cell line FaDu was respectively grown in RPMI-1640 medium (ATCC® modification) supplemented with 10% fetal bovine serum. The FaDu cell lines were maintained in an atmosphere of 5% CO2 in a humidified 37° C. incubator. The day before treatment, cells were collected and seeded into 96-well plates (4,000 cells per well). Each treatment was performed in eight triplicate data points. After the treatment of 72 hours, cell viability was assessed by CELLTITER-GLO® kit (PROMEGA®) according to the manufacturer's instruction. At the end of the incubation, luminescence was measured using a SpectraMax i3x Multi Mode Detection Platform (MOLECULAR DEVICES®). Compound cytotoxicity was evaluated in comparison to cells treated with 0.05% PBS (ADCs) or 0.05% DMSO (toxic payload). IC50 values were calculated by fitting viability data with a four-parameter logistic equation using GRAPHPAD® prism 5.0 software."}}, "data": [{"molecule": "B1", "values": [{"measurement": "FaDu tumor growth", "setting": "[1]; 5 mg/kg, Day 10 to Day 17", "result": "significantly reduced FaDu tumor growth"}, {"measurement": "TGI % (1-T/C) Day 0", "setting": "[1]; 5 mpk, IV, BIW × 3, Day 0", "result": 0.0, "unit": "%"}, {"measurement": "TGI % (1-T/C) Day 3", "setting": "[1]; 5 mpk, IV, BIW × 3, Day 3", "result": 6.6, "unit": "%"}, {"measurement": "TGI % (1-T/C) Day 5", "setting": "[1]; 5 mpk, IV, BIW × 3, Day 5", "result": 29.8, "unit": "%"}, {"measurement": "TGI % (1-T/C) Day 7", "setting": "[1]; 5 mpk, IV, BIW × 3, Day 7", "result": 56.1, "unit": "%"}, {"measurement": "TGI % (1-T/C) Day 10", "setting": "[1]; 5 mpk, IV, BIW × 3, Day 10", "result": 60.9, "unit": "%"}, {"measurement": "TGI % (1-T/C) Day 12", "setting": "[1]; 5 mpk, IV, BIW × 3, Day 12", "result": 62.7, "unit": "%"}, {"measurement": "TGI % (1-T/C) Day 14", "setting": "[1]; 5 mpk, IV, BIW × 3, Day 14", "result": 65.2, "unit": "%"}, {"measurement": "TGI % (1-T/C) Day 17", "setting": "[1]; 5 mpk, IV, BIW × 3, Day 17", "result": 76.6, "unit": "%"}, {"measurement": "IC50", "setting": "FaDu cells", "result": 55, "unit": "nM"}]}]}
